In the supplement of paper PMC10567573 one finds protein stability index data, which are given here for 95 variants.

B1: SLC35F2 (parent)
chain: SFMPLVIKVTSATSVNLGILTADL
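Note: lentivirally expressed fusions sorted by FACS into six bins by GFP to DsRed ratio, PSI derived from sequencing read proportions per bin multiplied by bin number.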

The variants in the series derive from B1. The series can be described thus: protein stability index of a GFP-peptide fusion (GPS, HEK-293T) (PSI 1-6); higher = more stable. The settings on record: c terminus: a fixed tail appended.
SFMPLVIKVTSATSVNLGILTNDL [A22N]: the protein stability index worked out at 2.95.

For the variant SFMPLVIKVTSATSVNLGILTLDL [A22L], the protein stability index is 2.58.

For the variant SFMPLVIKVTSATSVNLGILTGDL [A22G], the protein stability index stood at 3.15.

Regarding SFMPLVIKVTSATSVNLGILTQDL [A22Q], the protein stability index was 2.86.

SFMPLVIKVTSATSVNLGILTDDL [A22D]: the protein stability index amounted to 2.67.

SFMPLVIKVTSATSVNLGILTMDL [A22M]: the protein stability index is 3.85.

In the case of SFMPLVIKVTSATSVNLGILTYDL [A22Y], the protein stability index came out at 3.41.

With SFMPLVIKVTSATSVNLGILTTDL [A22T], the protein stability index was found to be 3.93.

Take SFMPLVIKVTSATSVNLGILTKDL [A22K]: the protein stability index worked out at 2.21.

As for SFMPLVIKVTSATSVNLGILTEDL [A22E], the protein stability index is 2.99.

Take SFMPLVIKVTSATSVNLGILTSDL [A22S]: the protein stability index was determined as 2.88.

Consider SFMPLVIKVTSATSVNLGILTCDL [A22C], for which the protein stability index came out at 4.09.

Consider SFMPLVIKVTSATSVNLGILTFDL [A22F], for which the protein stability index was 2.92.

Turning to SFMPLVIKVTSATSVNLGILTWDL [A22W], the protein stability index is 3.55.

Take SFMPLVIKVTSATSVNLSILTADL [G18S]: the protein stability index amounted to 3.19.

Regarding SFMPLVIKVTSATSVNLQILTADL [G18Q], the protein stability index came to 4.06.

As to SFMPLVIKVTSATSVNLTILTADL [G18T], the protein stability index turned out to be 3.29.

With SFMPLVIKVTSATSVNLRILTADL [G18R], the protein stability index stood at 3.18.

On to SFMPLVIKVTSATSVNLVILTADL [G18V], for which the protein stability index was found to be 2.17.

Regarding SFMPLVIKVTSATSVNLWILTADL [G18W], the protein stability index was found to be 3.32.

As to SFMPLVIKVTSATSVNLYILTADL [G18Y], the protein stability index came out at 3.08.

For SFMPLVIKVTSATSVNLPILTADL [G18P], the protein stability index came out at 2.47.

Take SFMPLVIKVTSATSVNLGSLTADL [I19S]: the protein stability index turned out to be 2.69.

For SFMPLVIKVTSATSVNLGGLTADL [I19G], the protein stability index worked out at 3.15.

Regarding SFMPLVIKVTSATSVNLGALTADL [I19A], the protein stability index amounted to 3.

On to SFMPLVIKVTSATSVNLGELTADL [I19E], for which the protein stability index is 2.08.

Turning to SFMPLVIKVTSATSVNLGVLTADL [I19V], the protein stability index is 2.77.

Turning to SFMPLVIKVTSATSVNLGRLTADL [I19R], the protein stability index is 2.08.

For SFMPLVIKVTSATSVNLGFLTADL [I19F], the protein stability index turned out to be 3.09.

As to SFMPLVIKVTSATSVNLGTLTADL [I19T], the protein stability index is 2.

Take SFMPLVIKVTSATSVNLGNLTADL [I19N]: the protein stability index came to 2.86.

On to SFMPLVIKVTSATSVNLGDLTADL [I19D], for which the protein stability index was found to be 1.97.

With SFMPLVIKVTSATSVNLGKLTADL [I19K], the protein stability index came out at 2.68.

In the case of SFMPLVIKVTSATSVNLGMLTADL [I19M], the protein stability index was 3.44.

In the case of SFMPLVIKVTSATSVNLGQLTADL [I19Q], the protein stability index is 2.64.

With SFMPLVIKVTSATSVNLGYLTADL [I19Y], the protein stability index was found to be 2.38.

On to SFMPLVIKVTSATSVNLGLLTADL [I19L], for which the protein stability index was 2.54.

As to SFMPLVIKVTSATSVNLGHLTADL [I19H], the protein stability index amounted to 2.39.

Turning to SFMPLVIKVTSATSVNLGPLTADL [I19P], the protein stability index was found to be 2.37.

Regarding SFMPLVIKVTSATSVNLGCLTADL [I19C], the protein stability index was 2.99.

In the case of SFMPLVIKVTSATSVNLGILTAKL [D23K], the protein stability index was 1.8.

As to SFMPLVIKVTSATSVNLGILTAYL [D23Y], the protein stability index was 3.03.

As for SFMPLVIKVTSATSVNLGILTAQL [D23Q], the protein stability index stood at 3.39.

For SFMPLVIKVTSATSVNLGILTAIL [D23I], the protein stability index is 3.05.

With SFMPLVIKVTSATSVNLGILTAVL [D23V], the protein stability index turned out to be 3.83.

In the case of SFMPLVIKVTSATSVNLGILTAHL [D23H], the protein stability index came out at 3.1.

For SFMPLVIKVTSATSVNLGILTALL [D23L], the protein stability index is 3.79.

In the case of SFMPLVIKVTSATSVNLGILTAPL [D23P], the protein stability index came to 2.65.

Regarding SFMPLVIKVTSATSVNLGILTAAL [D23A], the protein stability index was 2.74.

On to SFMPLVIKVTSATSVNLGILTAWL [D23W], for which the protein stability index was 2.49.

As to SFMPLVIKVTSATSVNLGILTANL [D23N], the protein stability index was 3.05.

Consider SFMPLVIKVTSATSVNLGILTASL [D23S], for which the protein stability index worked out at 2.11.

In the case of SFMPLVIKVTSATSVNLGILTAGL [D23G], the protein stability index stood at 3.96.

Take SFMPLVIKVTSATSVNLGILTAFL [D23F]: the protein stability index is 2.91.

On to SFMPLVIKVTSATSVNLGILTAEL [D23E], for which the protein stability index came to 4.12.

For SFMPLVIKVTSATSVNLGILTATL [D23T], the protein stability index was found to be 3.29.

As for SFMPLVIKVTSATSVNLGILTACL [D23C], the protein stability index was 2.29.

As to SFMPLVIKVTSATSVNLGILTAML [D23M], the protein stability index amounted to 1.83.

In the case of SFMPLVIKVTSATSVNLGILYADL [T21Y], the protein stability index was 3.83.

In the case of SFMPLVIKVTSATSVNLGILPADL [T21P], the protein stability index was found to be 2.5.

Take SFMPLVIKVTSATSVNLGILNADL [T21N]: the protein stability index was 1.87.

As to SFMPLVIKVTSATSVNLGILRADL [T21R], the protein stability index is 3.24.

Regarding SFMPLVIKVTSATSVNLGILFADL [T21F], the protein stability index came to 1.85.

As for SFMPLVIKVTSATSVNLGILLADL [T21L], the protein stability index stood at 2.33.

For SFMPLVIKVTSATSVNLGILDADL [T21D], the protein stability index turned out to be 2.61.

Turning to SFMPLVIKVTSATSVNLGILAADL [T21A], the protein stability index was 2.49.

Take SFMPLVIKVTSATSVNLGILQADL [T21Q]: the protein stability index is 2.79.

As for SFMPLVIKVTSATSVNLGILIADL [T21I], the protein stability index turned out to be 3.26.

SFMPLVIKVTSATSVNLGILSADL [T21S]: the protein stability index is 3.64.

As for SFMPLVIKVTSATSVNLGILHADL [T21H], the protein stability index worked out at 4.75.

For the variant SFMPLVIKVTSATSVNLGILVADL [T21V], the protein stability index turned out to be 2.54.

In the case of SFMPLVIKVTSATSVNLGILWADL [T21W], the protein stability index worked out at 2.7.

On to SFMPLVIKVTSATSVNLGILMADL [T21M], for which the protein stability index came to 2.77.

As for SFMPLVIKVTSATSVNLGILKADL [T21K], the protein stability index came to 2.52.

With SFMPLVIKVTSATSVNLGILGADL [T21G], the protein stability index was determined as 2.24.

On to SFMPLVIKVTSATSVNLGILEADL [T21E], for which the protein stability index was 2.86.

Take SFMPLVIKVTSATSVNLGILTADH [L24H]: the protein stability index turned out to be 3.57.

As to SFMPLVIKVTSATSVNLGILTADK [L24K], the protein stability index was determined as 2.4.

Take SFMPLVIKVTSATSVNLGILTADS [L24S]: the protein stability index amounted to 2.87.

On to SFMPLVIKVTSATSVNLGILTADI [L24I], for which the protein stability index was 3.14.

On to SFMPLVIKVTSATSVNLGILTADE [L24E], for which the protein stability index is 2.21.

Consider SFMPLVIKVTSATSVNLGILTADD [L24D], for which the protein stability index stood at 1.55.

For the variant SFMPLVIKVTSATSVNLGILTADV [L24V], the protein stability index was determined as 2.43.

As for SFMPLVIKVTSATSVNLGILTADQ [L24Q], the protein stability index was 2.79.

As for SFMPLVIKVTSATSVNLGILTADP [L24P], the protein stability index worked out at 3.07.

For the variant SFMPLVIKVTSATSVNLGILTADM [L24M], the protein stability index amounted to 3.01.

On to SFMPLVIKVTSATSVNLGILTADY [L24Y], for which the protein stability index amounted to 4.32.

Consider SFMPLVIKVTSATSVNLGILTADG [L24G], for which the protein stability index came to 3.04.

For the variant SFMPLVIKVTSATSVNLGILTADF [L24F], the protein stability index amounted to 3.22.

In the case of SFMPLVIKVTSATSVNLGILTADW [L24W], the protein stability index came to 1.78.

Turning to SFMPLVIKVTSATSVNLGILTADT [L24T], the protein stability index was 2.24.

With SFMPLVIKVTSATSVNLGILTADA [L24A], the protein stability index is 3.11.

As for SFMPLVIKVTSATSVNLGILTADN [L24N], the protein stability index came out at 3.27.

Regarding SFMPLVIKVTSATSVNLGILTADR [L24R], the protein stability index worked out at 1.89.

SFMPLVIKVTSATSVNLGILTADC [L24C]: the protein stability index is 3.76.
